{
  "source": "paper PMC12746075",
  "about": "“Twinfilin modulates tissue contractility through uncapping of capping protein in C. elegans” (Development (Cambridge, England), 2025)",
  "binders": {"B1": {"name": "C. elegans TWF-2 (6×His-tagged), recombinant (natural protein, UniProt Q20173 1-333, looked up)", "chain": "MACQTGIRANAALRNALNLGKQAKLRLIKIVVNNEEMTPNYEFAGTANWRDDWRACLPDCVDAYEPCFILFRLNTITEWVLITFVDDRAPVREKMLLAATCATFKSEFGQCYIEHEKHVTDLKDLTLNAFEAWLKAKTELGPMSEVERELHNAQQERAAIAHAGPQHMKGVAFPVDRNAEEALRQLASQKLSFVQLSVDTLNEAIKLEGTLESLEPSQLASKVPRDKPRYTFYNFDHTWEGVPQQCTLFIYSLPSSGSSIKERMLYSSCKGPFLSAAQNQYGVVITNKMEVDARDDLSEKALLEVIHPLPVEAPKQFSRPAPPRAGPRRITKV", "notes": "TWF-2, the sole twinfilin of C. elegans, recombinant; also called twinfilin; source: E. coli BL21 (pRare), purified (Ni-NTA, size-exclusion chromatography Superdex 75 Increase)"}},
  "biological_target": "T1, biotinylated SNAP-tagged C. elegans heterodimeric capping protein (CAP-1 and CAP-2) (C. elegans, UniProt P34685 1-282; P34686 1-270, biotin (benzylguanine-biotin on the SNAP tag; subunit that carries the tag not stated) | biotin (benzylguanine-biotin on the SNAP tag; subunit that carries the tag not stated))",
  "T1 construct": "CAP-1, capping protein subunit of C. elegans; CAP-2, capping protein subunit of C. elegans; only one SNAP tag is meant for the heterodimer; also called CP; SNAP-CP; source: E. coli BL21 DE3, purified (HisTrap, size-exclusion chromatography Superose 6), labeled with benzylguanine-biotin; not shown: His tag (from the HisTrap chromatography)",
  "T1 sequence (looked up) 1": "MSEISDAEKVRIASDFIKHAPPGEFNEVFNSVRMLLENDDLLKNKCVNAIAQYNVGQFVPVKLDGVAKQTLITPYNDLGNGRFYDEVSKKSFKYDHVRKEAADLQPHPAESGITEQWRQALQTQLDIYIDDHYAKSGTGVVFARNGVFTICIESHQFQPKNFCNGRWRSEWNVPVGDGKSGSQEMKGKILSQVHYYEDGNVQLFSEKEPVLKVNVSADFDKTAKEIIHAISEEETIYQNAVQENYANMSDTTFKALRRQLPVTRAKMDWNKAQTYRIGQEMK",
  "T1 sequence (looked up) 2": "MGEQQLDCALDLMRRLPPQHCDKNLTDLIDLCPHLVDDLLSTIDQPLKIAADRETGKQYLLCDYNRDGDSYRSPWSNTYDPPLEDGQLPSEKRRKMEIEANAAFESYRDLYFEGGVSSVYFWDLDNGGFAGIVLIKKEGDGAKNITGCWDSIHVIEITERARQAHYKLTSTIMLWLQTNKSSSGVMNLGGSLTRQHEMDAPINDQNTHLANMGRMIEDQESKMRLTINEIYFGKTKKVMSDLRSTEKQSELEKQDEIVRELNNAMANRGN",
  "experiment": "microfluidics-assisted TIRF microscopy (filament capture and uncapping); biotinylated SNAP-CP anchored to the coverslip surface, preformed Alexa-488-labeled ADP-actin filaments captured; filament detachment monitored in TIRF buffer (10 mM imidazole pH 7.4, 50 mM KCl, 1 mM MgCl2, 1 mM EGTA, 0.2 mM ATP, 10 mM DTT) with and without TWF-2; single-exponential fit",
  "conditions": "both partners purified",
  "data": [
    {"binder": "B1", "values": [
      {"measurement": "fold acceleration of uncapping of CP from barbed ends (against buffer)", "value": "> 90", "unit": "fold"}
    ]}
  ]
}
